Measurements taken from doi:10.1101/2021.02.24.432656 (bioRxiv, 2021).

Target: T1, bacterially purified STAT1 recombinant protein (human, UniProt P42224 1-750)
T1 sequence: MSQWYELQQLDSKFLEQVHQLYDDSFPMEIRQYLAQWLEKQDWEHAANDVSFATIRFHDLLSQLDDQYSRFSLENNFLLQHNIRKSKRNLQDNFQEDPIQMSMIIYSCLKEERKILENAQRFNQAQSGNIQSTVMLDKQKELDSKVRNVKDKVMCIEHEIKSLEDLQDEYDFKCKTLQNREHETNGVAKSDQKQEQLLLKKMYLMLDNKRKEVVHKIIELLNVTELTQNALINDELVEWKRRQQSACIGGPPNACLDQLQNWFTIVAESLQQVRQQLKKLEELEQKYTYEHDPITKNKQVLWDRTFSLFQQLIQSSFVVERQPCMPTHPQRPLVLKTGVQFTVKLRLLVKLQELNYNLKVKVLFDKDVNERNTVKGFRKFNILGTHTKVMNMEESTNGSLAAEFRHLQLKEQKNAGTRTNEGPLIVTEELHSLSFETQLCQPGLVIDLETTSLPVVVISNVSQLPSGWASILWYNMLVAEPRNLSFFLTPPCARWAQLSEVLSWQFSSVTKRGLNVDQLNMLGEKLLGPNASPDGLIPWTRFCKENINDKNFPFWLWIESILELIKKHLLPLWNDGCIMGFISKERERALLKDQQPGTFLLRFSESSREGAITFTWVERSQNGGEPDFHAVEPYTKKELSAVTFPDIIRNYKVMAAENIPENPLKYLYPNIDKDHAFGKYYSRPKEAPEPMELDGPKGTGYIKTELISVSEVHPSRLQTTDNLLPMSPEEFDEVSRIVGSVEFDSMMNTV
Experiment: pull-down

Does YSQLDEEQPMEID (domain or fragment) [GST-GFP fused with the C-terminal peptide of ORF6 wild type (49-61 amino acids)] bind?
Result: binds
